The source of these data is article PMC4865801.

Assay [1] has as its target hNav1.7/V948C (human).
The target of assay [2] is hNav1.7 WT (human).
Assay [3] addresses hNav1.7/ΔL955 (human).

As for KKLITFILKKTREK [β4-peptide], the share of cells with resurgent currents (whole-cell patch clamp, 100 µM β4-peptide in the pipette, 50 nM ATX-II in the bath) in assay [1] was found to be 55%; in assay [2], 42%. This molecule came in with a cells with resurgent currents (whole-cell patch clamp, 100 µM β4-peptide in the pipette, 50 nM ATX-II in the bath) (out of 15 cells) in assay [3] of 1.
